Test results reported in patent US20240166737A1 (Janssen / Centocor, published 2024).
Values joined by “and” are separate entries in the source; they are usually repeats but may differ in a detail not shown here. Identical values can stand only once.

Assays:
[1] = target: T1, MSLN with Met593Val on cells homozygous for SNP rs1135210 (SNP G|G) (human, UniProt Q13421 296-598); experiment: binding to homozygous SNP-positive cells
T1 construct: also called homozygous SNP-positive cells; BxPC3, NCI-H322
T1 sequence (Q13421 other isoform, or with tags, fused parts or gaps M593V M593V limits assumed): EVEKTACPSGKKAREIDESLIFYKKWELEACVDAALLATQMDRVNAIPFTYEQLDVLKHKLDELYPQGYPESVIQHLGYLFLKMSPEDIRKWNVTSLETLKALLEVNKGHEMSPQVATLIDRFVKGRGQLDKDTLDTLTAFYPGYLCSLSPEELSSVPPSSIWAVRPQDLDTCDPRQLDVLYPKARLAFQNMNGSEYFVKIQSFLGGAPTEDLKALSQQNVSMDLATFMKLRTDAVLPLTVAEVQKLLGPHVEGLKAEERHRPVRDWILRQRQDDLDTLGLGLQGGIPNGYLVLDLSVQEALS

[2] = target: T2, MSNW10, recombinant full length human MSLN (human, UniProt Q13421 296-598); experiment: SPR after forced degradation
T2 construct: also called MSNW10.002; FL-MSLN
T2 sequence (Q13421 other isoform, or with tags, fused parts or gaps limits assumed): as the sequence (Q13421 other isoform, or with tags, fused parts or gaps M593V M593V limits assumed) above, with V298M counted along it

recombinant CD3 [3] = target: T3, recombinant CD3 (UniProt P07766 23-126); experiment: SPR after forced degradation
T3 construct: also called CD3 (SPR)
T3 sequence (P07766 23-126): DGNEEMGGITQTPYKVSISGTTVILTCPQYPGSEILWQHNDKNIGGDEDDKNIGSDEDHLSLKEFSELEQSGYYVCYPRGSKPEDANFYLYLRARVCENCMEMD

[4] = target: T4, CD3 epsilon on human T-cells (human, UniProt P07766 23-207); experiment: 1-hour 37 °C T-cell binding assay
T4 construct: part of the TCR-CD3 complex on T cells; also called CD3 on T cells
T4 sequence (P07766 23-207 limits assumed): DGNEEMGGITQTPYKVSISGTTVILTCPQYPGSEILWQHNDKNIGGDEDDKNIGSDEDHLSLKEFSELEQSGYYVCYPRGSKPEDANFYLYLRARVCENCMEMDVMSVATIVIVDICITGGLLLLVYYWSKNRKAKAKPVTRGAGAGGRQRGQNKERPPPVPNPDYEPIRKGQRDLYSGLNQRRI

[5] = target: T5, MSNW11, recombinant soluble (shed) MSLN lacking the C-terminal 7 AAs (human, UniProt Q13421 296-591); experiment: SPR
T5 construct: domain: soluble MSLN lacking the C-terminal 7 AAs; also called MSNW11.002; soluble MSLN
T5 sequence (Q13421 other isoform, or with tags, fused parts or gaps limits assumed): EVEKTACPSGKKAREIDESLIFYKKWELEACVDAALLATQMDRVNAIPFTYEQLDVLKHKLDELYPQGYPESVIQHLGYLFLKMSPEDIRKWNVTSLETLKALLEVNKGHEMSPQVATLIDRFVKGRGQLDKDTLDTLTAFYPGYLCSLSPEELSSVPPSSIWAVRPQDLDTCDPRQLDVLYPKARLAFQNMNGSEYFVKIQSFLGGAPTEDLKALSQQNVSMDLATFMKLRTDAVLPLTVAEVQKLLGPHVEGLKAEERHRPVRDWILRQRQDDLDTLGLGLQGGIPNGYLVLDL

[6] = target: T2, MSNW10, recombinant full length human …; experiment: SPR, recombinant full-length human MSLN
mouse MSLN = target: T6, mouse MSLN (mouse, UniProt Q61468 298-600, limits assumed); experiment: not described (study MSLN-00922)
T6 construct: also called corresponding mouse antigen
T6 sequence (looked up): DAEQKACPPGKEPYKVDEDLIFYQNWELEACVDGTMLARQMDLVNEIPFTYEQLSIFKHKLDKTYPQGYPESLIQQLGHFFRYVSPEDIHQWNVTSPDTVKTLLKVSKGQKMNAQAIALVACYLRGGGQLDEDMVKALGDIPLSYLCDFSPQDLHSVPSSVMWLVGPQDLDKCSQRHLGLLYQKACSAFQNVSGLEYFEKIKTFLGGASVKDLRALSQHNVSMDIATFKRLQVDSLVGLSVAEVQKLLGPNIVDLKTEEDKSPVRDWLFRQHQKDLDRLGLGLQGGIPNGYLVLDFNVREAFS

mouse CD3 = target: T7, mouse CD3 (mouse, UniProt P22646 22-108); experiment: not described (study MSLN-00922)
T7 construct: also called corresponding mouse antigen
T7 sequence (looked up): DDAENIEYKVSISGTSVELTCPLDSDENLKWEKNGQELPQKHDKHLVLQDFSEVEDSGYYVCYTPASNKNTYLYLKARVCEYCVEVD

[7] = target: T2, MSNW10, recombinant full length human …; experiment: SPR after forced degradation; after pH 5 (Iso) forced degradation
recombinant CD3 [8] = target: T3, recombinant CD3; experiment: as above
recombinant CD3 [9] = target: T3, recombinant CD3; experiment: SPR, recombinant CD3
[10] = target: human MSLN on the cell surface (human, UniProt Q13421 296-598); experiment: cell-based or functional assay
Sequence of human MSLN on the cell surface (Q13421 other isoform, or with tags, fused parts or gaps limits assumed): as the sequence (Q13421 other isoform, or with tags, fused parts or gaps M593V M593V limits assumed) above, with V298M counted along it

- binding result [1]: no binding
- Kd [2]: 5.22 nM and 4.92 nM and 4.76 nM and 5.03 nM
- Kd (recombinant CD3 [3]): 0.13 nM and 0.17 nM and 0.14 nM
- EC50 [4]: > 100 nM
- binding result [5]: no binding
- Kd [6]: 4.64 nM
- binding result (mouse MSLN): no binding
- binding result (mouse CD3): no binding
- Kd [7]: 4.7 nM
- Kd (recombinant CD3 [8]): 0.13 nM
- Kd (recombinant CD3 [9]): 0.12 nM
B1: MNC3B304 (bispecific antibody, human IgG1, kappa, L234A L235A)
scFv: DIQMTQSPSSLSASVGDRVTITCRARQSIGTAIHWYQQKPGKAPKLLIKYASESISGVPSRFSGSGSGTDFTLTISSLQPEDFATYYCQQSGSWPYTFGQGTKLEIKGGSEGKSSGSGSESKSTGGSEVQLVESGGGLVKPGGSLRLSCAASGFTFSRYNMNWVRQAPGKGLEWVSSISTSSNYIYYADSVKGRFTFSRDNAKNSLDLQMSGLRAEDTAIYYCTRGWGPFDYWGQGTLVTVSSEPKSSDKTHTCPPCPAPEAAGGPSVFLFPPKPKDTLMISRTPEVTCVVVSVSHEDPEVKFNWYVDGVEVHNAKTKPREEQYNSTYRVVSVLTVLHQDWLNGKEYKCKVSNKALPAPIEKTISKAKGQPREPQVYTLPPSREEMTKNQVSLWCLVKGFYPSDIAVEWESNGQPENNYKTTPPVLDSDGSFFLYSKLTVDKSRWQQGNVFSCSVMHEALHNHYTQKSLSLSPGK
heavy: QVQLVESGPGQVKPSQTLSLTCAISGDSVSSNSAAWNWIRQSPSRGLEWLGRTYYRSKWYNDYAVSVKSRITINPDTSKNQFSLQLNSVTPEDTAVYYCARRDYSSGGFDYWGQGTTVTVSSASTKGPSVFPLAPSSKSTSGGTAALGCLVKDYFPEPVTVSWNSGALTSGVHTFPAVLQSSGLYSLSSVVTVPSSSLGTQTYICNVNHKPSNTKVDKKVEPKSCDKTHTCPPCPAPEAAGGPSVFLFPPKPKDTLMISRTPEVTCVVVSVSHEDPEVKFNWYVDGVEVHNAKTKPREEQYNSTYRVVSVLTVLHQDWLNGKEYKCKVSNKALPAPIEKTISKAKGQPREPQVYTLPPSREEMTKNQVSLSCAVKGFYPSDIAVEWESNGQPENNYKTTPPVLDSDGSFFLVSKLTVDKSRWQQGNVFSCSVMHEALHNRFTQKSLSLSPGK
light: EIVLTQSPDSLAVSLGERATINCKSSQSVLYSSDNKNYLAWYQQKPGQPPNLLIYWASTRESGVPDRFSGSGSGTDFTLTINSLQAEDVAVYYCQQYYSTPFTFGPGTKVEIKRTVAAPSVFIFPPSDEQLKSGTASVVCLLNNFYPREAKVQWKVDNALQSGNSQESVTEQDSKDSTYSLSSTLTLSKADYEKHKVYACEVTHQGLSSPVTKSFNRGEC
notes: also called mrMSLN-MSNB457 x W245LH, KiH; CD3W245 LH containing Bipod
- cytotoxicity EC50, OVCAR-8 K1/C8 MSLN medium cells, Incucyte 72 hours, 1:1 E:T [10]: 1.2 nM
- cytotoxicity EC50, OVCAR-8 MSLN high cells, Incucyte 72 hours, 1:1 E:T [10]: 0.24 nM
- cytotoxicity EC50, SK-OV-3 MSLN low cells, Incucyte 72 hours, 1:1 E:T [10]: 103 nM
